The results in this text go back to patent publication US20090104178A1.

Some targets named below: mCCL21 (mouse) (UniProt P84444); mCCL25 (mouse) (UniProt O35903); mCCL27 (mouse) (UniProt Q9Z1X0); mCXCL11 (mouse) (UniProt Q9JHH5); mCXCL13 (mouse) (UniProt O55038); mCXCL14 (mouse) (UniProt Q9WUQ5).
What all share (assay): SPR (BIAcore X), E12 thiol-coupled to the chip, chemokine injected
A general note: SPR reads the build-up and loss of mass on a sensor chip optically.

pKd: −log10 of the molar value.

Chain of mCXCL13 (mouse) (O55038 22-109 limits assumed): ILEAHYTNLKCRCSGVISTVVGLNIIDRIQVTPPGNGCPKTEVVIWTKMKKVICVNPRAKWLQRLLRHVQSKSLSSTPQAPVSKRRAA
Chain of mCCL25 (mouse) (O35903 24-144 limits assumed): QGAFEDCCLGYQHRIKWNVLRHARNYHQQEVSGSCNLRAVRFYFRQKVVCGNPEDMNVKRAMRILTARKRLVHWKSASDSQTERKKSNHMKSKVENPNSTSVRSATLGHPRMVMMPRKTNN
Chain of mCCL27 (mouse) (Q9Z1X0 26-120 limits assumed): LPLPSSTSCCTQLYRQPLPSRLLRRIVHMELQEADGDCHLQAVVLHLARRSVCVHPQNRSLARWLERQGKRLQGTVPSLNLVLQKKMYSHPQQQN
Chain of mCCL21 (mouse) (P84444 24-133): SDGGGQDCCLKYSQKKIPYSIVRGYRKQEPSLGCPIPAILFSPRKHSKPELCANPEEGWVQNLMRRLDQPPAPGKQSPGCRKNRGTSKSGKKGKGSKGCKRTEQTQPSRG
Chain of mCXCL14 (mouse) (Q9WUQ5 23-99 limits assumed): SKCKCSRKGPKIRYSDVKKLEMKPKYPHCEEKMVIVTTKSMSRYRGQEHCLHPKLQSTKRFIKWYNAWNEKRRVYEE
Chain of mCXCL11 (mouse) (Q9JHH5 22-100 limits assumed): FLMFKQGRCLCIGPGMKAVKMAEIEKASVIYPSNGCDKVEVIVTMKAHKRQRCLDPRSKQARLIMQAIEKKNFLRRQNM

Turning to Purified EV E12 protein, the pKd (in general, the Kd on a negative log10 scale, so that one unit is a factor of ten) was 9.30 with mCCL21 (mouse); 9.15 with mCCL25 (mouse); 8.70 with mCCL27 (mouse); 9.00 with mCXCL11 (mouse); 8.82 with mCXCL13 (mouse); 8.82 with mCXCL14 (mouse).
